Test results taken from publication PMC10245032 (EMBO Molecular Medicine, 2023).

Experiments:
Conditions in all cases: both partners purified
[1] = molecular target: T1, PfCSP C‐terminal linker peptide P2 (PfCSP 281–294) (Plasmodium falciparum NF54); experiment: ELISA; antigen coated on 384-well plates overnight at 4°C in PBS (full-length PfCSP 0.4 μg/ml, C-CSP 1 μg/ml, peptides 2 μg/ml); mAb from 4 μg/ml in PBS, RT 1.5 h; detected with anti-human IgG-HRP; AUC
T1 construct: Plasmodium falciparum NF54 circumsporozoite protein (PfCSP), aa 281–294 of the C-linker; One of 14 overlapping peptides (P1-P14); also called C‐CSP peptide; source: synthetic peptide (PSL Peptide Specialty Laboratories GmbH)
T1 chain: QGHNMPNDPNRNVD

[2] = molecular target: T2, full‐length PfCSP (FL‐CSP), NF54 (Plasmodium falciparum NF54); experiment: as above
T2 construct: Plasmodium falciparum NF54 circumsporozoite protein, called full-length; source: FL-CSP expressed in E. coli by the EMBL core facility; a biotinylated NF54 FL-CSP was expressed in HEK293F and purified (HisTrap HP, SEC)

[3] = molecular target: T3, PfCSP C‐linker peptide (aa 273–310) (Plasmodium falciparum NF54, UniProt P19597); experiment: as above
T3 construct: Plasmodium falciparum NF54 circumsporozoite protein, C-linker, aa 273–310; source: synthetic peptide (PSL Peptide Specialty Laboratories GmbH)
T3 chain: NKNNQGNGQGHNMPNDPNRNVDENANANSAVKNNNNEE

[4] = molecular target: T4, PfCSP C‐terminal domain (C‐CSP), NF54 (Plasmodium falciparum NF54, UniProt P19597); experiment: as above
T4 construct: Plasmodium falciparum NF54 circumsporozoite protein, C-terminal domain made of the C-linker (aa 273–310) and the α-TSR domain (aa 311–384); also called C‐CSP peptide; PfCSP C terminus; source: E. coli, by the EMBL protein expression and purification core facility

[5] = molecular target: T1, PfCSP C‐terminal linker peptide P2 …; experiment: crystal structure; 3764 Fab and PfCSP 281-294 peptide mixed 1:3; 19% isopropanol, 19% PEG 4000, 5% glycerol, 0.095 M sodium citrate pH 5.6; 2.36 Å

B1: mAb 3764 (recombinant human IgG1) (antibody, V domains shown)
VH: QVQLVESGGGVVQPGRSLRLSCAASGFTFSSYGMHWVRQAPGKGLEWVAVIWYDGSYKSYIESVKGRFTISRDNSKNTLYLQMNSLRVEDTAVYYCALGYSSGQGTLDNWGQGTLVTVSS
VL: DVVMTQSPLSLAVTLGQPASISCRSTQSLVYSDGNTYLNWFQQRPGQSPRRLIYKVSNRDSGVPDRFSGSESGTDFTLKISRVEAEDVGLYYCMQGTHWPWTFGQGTKVEIK
notes: heavy chain variable region of mAb 3764 (IGHV3-33); human IgG1 constant region from the IGHG1 expression vector; kappa chain variable region of mAb 3764; human Ig kappa constant region from the IGKC expression vector; IgG1; Somatic mutations H.N56Y and H.Y58S against germline are already part of the antibody; also called C‐linker specific mAb 3764; source: HEK293T, co-transfected, purified from …
- binding result [1]: binds
- binding result [2]: binds
- binding result [3]: binds
- binding result [4]: binds

B2: 3764 Fab (Fab, V domains shown)
VH: QVQLVESGGGVVQPGRSLRLSCAASGFTFSSYGMHWVRQAPGKGLEWVAVIWYDGSYKSYIESVKGRFTISRDNSKNTLYLQMNSLRVEDTAVYYCALGYSSGQGTLDNWGQGTLVTVSS
VL: DVVMTQSPLSLAVTLGQPASISCRSTQSLVYSDGNTYLNWFQQRPGQSPRRLIYKVSNRDSGVPDRFSGSESGTDFTLKISRVEAEDVGLYYCMQGTHWPWTFGQGTKVEIK
notes: mAb 3764 heavy chain variable region upstream of human IgG1-CH1; mAb 3764 kappa chain variable region upstream of human IgK constant domain; also called mAb 3764 Fab; source: HEK293F, transiently co-transfected, purified (Kappa-select, MonoS cation exchange, Superdex 200 SEC)
- binding result [5]: binds
